The data set can be described thus: soluble on expression in E. coli; label from the status in PepcDB or PDB records.
Consider “MIIMLSEYLEEFKEYLERFKNIDINFSDVLKMSKKFIIWRLKQIFGDSSTIFTNISSEITIFDKIFQMIDYDIDGEVEKRLPKDESRFMIGVRREKEIEIKKEIITNLLDFLLIILLSHTPYFNAFVRKYAEIKKIKVIKKLPNKISVWEFIKIASRSRINDLHLERLDLENGFVDITKIKEIFAKEIIRVELMKLGENIKKRKLPDDSVVKELLNEISDYLKDKVKYEQISGIKALNYKGNIPLEWHPPCIRGILNDILSGGSPSHYARRSFVVYWFCAKFNPNLRPLDKNGNLVNVSATDIASEEEIERFIDELIEMLFKNVEDFDEKKTRYYIMHNIGYKVGHGRLTHCEYCKNWQDDGGKGLSYYCKPDELCKKKFIIHPLDYLCYNINKHLKKERFKKIKKEDKNGDNKLEHHHHHH”, for which the “soluble on expression in E. coli” value was “soluble”.

Consider “MSNDDNVELTDGFHVLIDALKMNDIDTMYGVVGIPITNLARMWQDDGQRFYSFRHEQHAGYAASIAGYIEGKPGVCLTVSAPGFLNGVTSLAHATTNCFPMILLSGSSEREIVDLQQGDYEEMDQMNVARPHCKASFRINSIKDIPIGIARAVRTAVSGRPGGVYVDLPAKLFGQTISVEEANKLLFKPIDPAPAQIPAEDAIARAADLIKNAKRPVIMLGKGAAYAQCDDEIRALVEETGIPFLPMGMAKGLLPDNHPQSAAATRAFALAQCDVCVLIGARLNWLMQHGKGKTWGDELKKYVQIDIQANEMDSNQPIAAPVVGDIKSAVSLLRKALKGAPKADAEWTGALKAKVDGNKAKLAGKMTAETPSGMMNYSNSLGVVRDFMLANPDISLVNEGANALDNTRMIVDMLKPRKRLDSGTWGVMGIGMGYCVAAAAVTGKPVIAVEGDSAFGFSGMELETICRYNLPVTVIIMNNGGIYKGNEADPQPGVISCTRLTRGRYDMMMEAFGGKGYVANTPAELKAALEEAVASGKPCLINAMIDPDAGVESGRIKSLNVVSKVGKK”, for which the “soluble on expression in E. coli” value was “soluble”.

On to “AEVYNKDGNKLDLYGKVDGLHYFSDDKSVDGDQTYMRLGFKGETQVTDQLTGYGQWEYQIQGNAPESENNSWTRVAFAGLKFQDIGSFDYGRNYGVVYDVTSWTDVLPEFGGDTYGSDNFMQQRGNGFATYRNTDFFGLVDGLNFAVQYQGQNGSVSGENDPDFTGHGITNNGRKALRQNGDGVGGSITYDYEGFGVGAAVSSSKRTWDQNNTGLIGTGDRAETYTGGLKYDANNIYLAAQYTQTYNATRVGSLGWANKAQNFEAVAQYQFDFGLRPSVAYLQSKGKNLGVVAGRNYDDEDILKYVDVGATYYFNKNMSTYVDYKINLLDDNQFTRAAGINTDDIVALGLVYQF”, for which the “soluble on expression in E. coli” value is “soluble”.

Regarding “SLAANMYRVGDYVYFENSSSNPYLIRRIEELNKTASGNVEAKVVCFYRRRDISNTLIMLADKHAKEIEEESETTVEADLTDKQKHQLKHRELFLSRQYESLPATHIRGKCSVALLNETESVLSYLDKEDTFFYSLVYDPSLKTLLADKGEIRVGPRYQADIPEMLLEGESDEREQSKLEVKVWDPNSPLTDRQIDQFLVVARAVGTFARALD”, the “soluble on expression in E. coli” value is reported as “soluble”. On to “MAHHHHHHMWTAPPSLRTVRPIFLPLNVVANSTSSLLLHPGQLDLKHVEGYMTSKKWLSKLKCCGDNPLTVDEMKALVLMFLKKISDTYVDDQAKWMNKMRSSQEEQGKALEEAMNEYEKNILFNHALKEQQLLHNNKKISEWNETIENAYEAQQEVLRQFEAKKREDKKKMALEKNNELIIAKDYIDKIKEAATDSRYANSKCFVYPASSAPCGACTSAGAIAPYRRFKEPRRKKQYSLCL”, for which the “soluble on expression in E. coli” value is “not soluble”.

With “MIVLRDVAGSDESMYQALQSDLDLTDYLSRFCPYNSSVANYDTSKVCWFIIEEDTNCIGSIWLERDAQEPDTVILGIFISGKNSRGRGIGSYAIREAIRISKQRMPFRYVRLNVRRNNLRAIRCYEKCGFKVCGEGQKNAKNGAIIDYYRMIMKVED”, the “soluble on expression in E. coli” value is “soluble”.

In the case of “GHHHHHHAIAENLYFQSNSHDGSNFSNKFSAHKDVVEDLLRKDTVGLVTFQDFRARREYLERCAVAEAACQNASRRAEELETKKKRVKRANLSRLSFGDSLEDQEENSVEFAKITRFASSKKANGVGFNTSGQDIVKEPDVFSPKEEGFFGKQNRKIGMDPGVDTSFLPDRDREQEERLERERLKQQWLSEQERVKNEEIDIIYSIWDGRGQRKLLSCKKGTTIAKFLSIVQQKVSTLKHCKVEDLMFIKEDMIIPHHLSFYDLISMKARGKNGSLFCFDVHEDIRIRNDASVEKDDSHAAKVVERRWYERNKHIYPASMWEVFDVSKNYGRVQKDFFGN”, the “soluble on expression in E. coli” value was “not soluble”.

Regarding “PGRLHNAIVRPRVLDLLQHATCYKLVLFRSPAGYGKTTMAAQWLADKPNLGWYSIDDSDNDPFRFMNYLLQAINKATHN”, the “soluble on expression in E. coli” value was “not soluble”.

On to “MKVLVVGSGGREHALLWKAAQSPRVKRLYAAPGNAGMEALAELVPWNGDVEALADWALAEGIDLTLVGPEAPLVEGIADAFQARGLLLFGPTQKAAMIEGSKAFAKGLMERYGIPTARYRVFREPLEALAYLEEVGVPVVVKDSGLAAGKGVTVAFDLHQAKQAVANILNRAEGGEVVVEEYLEGEEATVLALTDGETILPLLPSQDHKRLLDGDQGPMTGGMGAVAPYPMDEATLRRVEEEILGPLVRGLRAEGVVYRGVVYAGLMLTREGPKVLEFNARFGDPEAQALLPLLENDLVELALRVAEGRLAGTRLSWKEGAAACVVLAAPGYPESPRKGIPLHVPEPPEGVLVFHAGTRREGGRLVSAGGRVLNVVGLGRDLKEALERAYAYIPQVGFPGAVYRRDIGRRALARLST”, for which the “soluble on expression in E. coli” value was “soluble”. In the case of “MANDKIVIHGARAHNLKNIDVTIPRDKMVVVTGLSGSGKSSLAFDTLYAEGQRRYVESLSAYARQFLGQMDKPDVDSIDGLSPAISIDQKTTSKNPRSTVGTVTEINDYLRLLFARVGHPICPNDHIEITSQSVEQMVDKVLELPERTKIQILAPVVVKKKGQHKKVFEMIQREGYVRMRVDGETYDVSEAPELEKNKKHDIAIVIDRIVVKEGIRSRLFDSFEAALRLAEGYAIVDVIGQEEMLFSEHYACPYCGFTVGELEPRLFSFNAPFGACPDCDGLGVKLEVDKDLVIPDPTKTLREGAIVPWNPISSQYYPQMLEQAATSFGIDMDTPFEELPADQQEIILNGSGEKNFHFHYENDFGGVRDVEVPFEGILKNIKRRYHETNSDFTRDQMRLYMTELTCRSCQGYRLNPQALAVKINGTHIGEVSELAIKNAVQFFEGVSLSEQETTIARPILKEVEDRLTFLKNVGLDYLTLSRAAGTLSGGEAQRIRLATQIGSNLSGVLYILDEPSIGLHQRDNDRLIDSLKKMRDLGNTLIVVEHDEDTMMASDYLIDVGPGAGHLGGEIVAAGTPEEVAKNPHSLTGQYLSGKKVIPVPKERRKGNGKAIKVTGASENNLKNVSVEFPLGEFVAVTGVSGSGKSTLVNQILKKALAQKLNRNSNKPGKHKSITGYEAIEKIVDIDQSPIGRTPRSNPATYTSVFDDIRDLFAQTNEAKVRGYKKGRFSFNVKGGRCEACRGDGIIKIEMHFLPDVYVPCEVCHGKRYNSETLEVHYKGKNISDILDMTVEDAVEFFKHIPKIHRKLQTIVDVGLGYVTLGQPATTLSGGEAQRMKLASELHKNSNGKNFYILDEPTTGLHTDDIARLLLVLERLVEAGNTVLVIEHNLDVIKSADHVIDLGPEGGDGGGTIVATGTPEEVAKVKDSYTGYYLKRVLK”, the “soluble on expression in E. coli” value was “not soluble”. Regarding “MKINRHILDNGLRLVHSQDESTQMVALNVLYNVGARDEHPEHTGFAHLFEHLMFGGSVNIPDYDMPLQLAGGENNAWTNNDITNYYLTVPRQNVETGFWLESDRMLSLDFSERSLEVQRGVVMEEFKQRCLNQPYGDVGHLLRPLAYRAHTYQWPTIGKDLSHIANATLEEVKAFFFRFYAPNNAVLAVTGNISFEEAVALTEKWFGPIPRREVPQRNLPQEPEQTEERRLTVERNVPLDSLFMAYHMCSHDHPDYYAFDILSDLLSNGRSSRLNQRLVQQKQLFSSIDAYISGSVDAGLFHISGKPAAGVSLEQAEAAVREELERLQQEPVDEQELEKVKNKFESTQIFGNINYLNVATNLAWFELLGRAEDMEKEVERYRAVTAGQLQKVAQSAFRKENGVILYYKKQIS”, the “soluble on expression in E. coli” value is “not soluble”. Then “MVSRRVQALLDQLRAQGIQDEQVLNALAAVPREKFVDEAFEQKAWDNIALPIGQGQTISQPYMVARMTELLELTPQSRVLEIGTGSGYQTAILAHLVQHVCSVERIKGLQWQARRRLKNLDLHNVSTRHGDGWQGWQARAPFDAIIVTAAPPEIPTALMTQLDEGGILVLPVGEEHQYLKRVRRRGGEFIIDTVEAVRFVPLVKGELA”, with “soluble”. Under “MQVIHQYSNKGGKYQNRYDVSILVNGLPLVHVELKKRGVAIREAFNQIKRYKRDSFSAEDGLFDFVQIFVISNGTSSKYYSNTTRIAQLEKNHKADTFEFTNYWADSKNHNIEDLMDFAKAFFAKRSLLNVLTCYCVFTSEEVLLVMRPYQIVAAERILEKIKTAQNSKTKNQSKGYIWHTTGSGKTLTSFKSATLAKELESVSKVLFVVDRKDLDYQTMKEYDKFQKDCANSNTSTKILKEQLEDSNAKIIITTIQKLDKFVKSHKGHAIFNEEVVMIFDECHRSQLGSMHQAITKAFKKYHLFGFTGTPIFAANCDKNNPLGTTEQKFGKCLHQYTIIDAIRDKNVLPFRVEYHNTIKAKEDIKDNKVRAVDEKNALLDTRRIKEITKCILERFNQATKNKKFNSILACSSIEALKKYYQAFKEEKHDLKIAAIFSYSANEEIDTLEDENNESACRLDKSSRDFLEGAIADYNGMFGVSFDTSDQKFQSYYKDLSQKMKERKIDLLMVVNMFLTGFDATRLNTLWVDKNLKYHGLIQAFSRANRILDSVKTHGNIVCFRDLEQDLNDALMLFGNKDAQSIALLRKYEDYLKGYTDNNKEYEGYEGLIKRLLTEFPLKEPIVSESQKKDFIKLFGKILKLENILNSFENFKKDDYINPRDFQDYQSKYLDFYDAMRSEKGKDKEEINDDLIFEIELIKQVEVNIDYILNLIEEFAKEHGVEIQGVKTKIEPIINSSIELRNKKDLIMDFIDKYNKDQEVHAHFQDYIHQKREEEFQNIIEENRLNEEKAYSFMQHAFKGGEISFSGTEFPKIIEEKPSMFGKNSRYQEVKEKVAASLSRFFHRFCDLTSAIFKKNEVKKDEVNEK” stands “not soluble”. As to “MKRAPFLCKQSPDRTLEVVILAGSLAWETSRVWRKDPDREDDVPPMVLGPNELADLSNLTIIRPDTLYVRVLRTGDISEEDLLKIAVKLAHAGVQMARLMSPDGELLENWTGQLERLRQERPSDILPDHFRLDEEALWFDKLTERRDGESDVQPQRICSPLRVTAITCDSHDGSYGRLLEWHTTTGQLRRWAMPMAMLSGNGEELRRILLENGLTNISTRPALRSLLCEYISRSLPGRRVTCVEKTGWHNGVYVLPDEVIGPDGDNVILQGSHYLTGGFAQAGTLAEWQEQVAALCAGNSRLVFAVCCALAAPLLRLTGTGGGGFHLRGESTDGKTTVMKVAASVCGGTDYWHSWRATGNALEGIASRHNDALLPLDELREVDPREAGMIAYMLANGQGKGRARTDGEVRNRRHWTLLLFSTGELSLAEHTERAGERIYAGMDVRMVQIPSDTGQHGAFEQLHGFASGQQFADTLCDRVARFHGTAFRAWLAFLTHDQDASTTLARELLRRYQNALMPDNAGNQVQRIVARFALLAAAGEIATLHGITGWQKGTAYEAVQICLHAWLNERGHIANQEDEGVLAQIKRFITAHQYSRFASWDGPDRPLNMAGFRRVEKDPLTGEEHTLFFILPEGWREICRGFSPARAARLCQEAECLQPGSDGKYQSQVRLPEIGKTRVYRLTSRILSILEHHHHHH”, the “soluble on expression in E. coli” value is listed as “soluble”. Then “MGGVTSKVNVDVVQEQVKKDPVVMYTKTSCTFCNRAKDLFSDVRVAYKEVNLDTLKASQPDDYLGIVNGLVYTTRQTSVPQIFVCGRFIGGYTELDALRNSGHLFEAIAQCTGENSPKE”, with “not soluble”; and “QEGDAAKGEKEFNKCKACHMVQAPDGTDIVKGGKTGPNLYGVVGRKIASVEGFKYGDGILEVAEKNPDMVWSEADLIEYVTDPKPWLVEKTGDSAAKTKKTFKLGKNQADVVAFLAQHSPDAGAEAAPAEGAAN”, with “soluble”.
